# In US20260092093A1 (TJ BIOPHARMA SHANGHAI, published 2026):
# T1: recombinant hIL-18Rα extracellular domain (human, UniProt Q13478 22-329, biotin label (selection) or fluorescent probe (single-clone FACS), sites not given)
# T1 construct: extracellular domain; also called hIL-18Rα ECD; hIL-18Rα-ECD
# T1 sequence (looked up): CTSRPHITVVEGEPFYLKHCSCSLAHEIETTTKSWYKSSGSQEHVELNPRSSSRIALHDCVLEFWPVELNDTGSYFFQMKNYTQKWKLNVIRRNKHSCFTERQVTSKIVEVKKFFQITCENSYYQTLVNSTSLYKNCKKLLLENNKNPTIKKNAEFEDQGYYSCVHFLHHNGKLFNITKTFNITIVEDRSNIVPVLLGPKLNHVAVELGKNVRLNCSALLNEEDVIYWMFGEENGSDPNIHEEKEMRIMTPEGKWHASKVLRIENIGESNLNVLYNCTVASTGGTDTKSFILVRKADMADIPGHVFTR
# Molecular target: T1, recombinant hIL-18Rα extracellular …
# Test: single-clone FACS, yeast display, 10 nM labelled hIL-18Rα ECD
# Description: Following the screens described in Example 2, single clone FACS analysis was performed to verify the binding of selected yeast cell surface-expressed IL-18 variant polypeptides from Round 4 and Round 5 to 10 nM hIL-18Rα-ECD. Briefly, each yeast clone at the same density was incubated with 10 nM IL-18Rα-ECD labeled by fluorescent probe, respectively, followed by washing step. Then the ratio of fluorescent positive IL-18Rα ECD binding yeasts in the population of each clone were analyzed.
row,Binder,% of fluorescence positive cells
1,SEQ ID NO 61 (ligand) YFPKLKSKLSVIRNLNDQVLFIDQGNRPLFEDMTDSDCRDNAPRTIFIISMYKFSTERGMAVTISVKCEKISTLSCENKIISFKEMNPPDPIKDTKSDIIFFQRSVPGHDNKMQFESSSYEGYFLACEKERDLFKLILKKEDELGDRSIMFTVQNED,76.1%
2,SEQ ID NO 71 (ligand) YFPKLYSKLSVIRNLNDQVLFIDQGNRPLFEDMTDSDCRDNAPRTIFIISMYKHSTNRGMAVTISVKCEKISTLSCENKIISFKEMNPPDGIKDTKSDIIFFQRSVPGHDNKMQFESSSYEGYFLACEKERDLFKLILKKEDELGDRSIMFTVQNED,45.1%
3,SEQ ID NO 68 (ligand) YFPKLKSKLSVIRNLNDQVLFIDQGNRPLFEDMTDSDCRDNAPRTIFIISMYKWSPWRGMAVTISVKCEKISTLSCENKIISFKEMNPPDNIKDTKSDIIFFQTSVPGHDNKMQFESSSYEGYFLACEKERDLFKLILKKEDELGDRSIMFTVQNED,60.9%
4,SEQ ID NO 70 (ligand) YFPKLRSKLSVIRNLNDQVLFIDQGNRPLFEDMTDSDCRDNAPRTIFIISMYKWSGGRGMAVTISVKCEKISTLSCENKIISFKEMNPPDAIKDTKSDIIFFQLSVPGHDNKMQFESSSYEGYFLACEKERDLFKLILKKEDELGDRSIMFTVQNED,51.3%
5,SEQ ID NO 77 (ligand) YFPKLRSKLSVIRNLNDQVLFIDQGNRPLFEDMTDSDCRDNAPRTIFIISMYKHSYTRGMAVTISVKCEKISTLSCENKIISFKEMNPPDIIKDTKSDIIFFQYSVPGHDNKMQFESSSYEGYFLACEKERDLFKLILKKEDELGDRSIMFTVQNED,28.4%
6,SEQ ID NO 69 (ligand) YFPKLVSKLSVIRNLNDQVLFIDQGNRPLFEDMTDSDCRDNAPRTIFIISMYKWSAIRGMAVTISVKCEKISTLSCENKIISFKEMNPPDVIKDTKSDIIFFQTSVPGHDNKMQFESSSYEGYFLACEKERDLFKLILKKEDELGDRSIMFTVQNED,60.9%
7,SEQ ID NO 75 (ligand) YFPKLGSKLSVIRNLNDQVLFIDQGNRPLFEDMTDSDCRDNAPRTIFIISMYKHSSRRGMAVTISVKCEKISTLSCENKIISFKEMNPPDVIKDTKSDIIFFQNSVPGHDNKMQFESSSYEGYFLACEKERDLFKLILKKEDELGDRSIMFTVQNED,30%
8,SEQ ID NO 76 (ligand) YFPKLKSKLSVIRNLNDQVLFIDQGNRPLFEDMTDSDCRDNAPRTIFIISMYKWSWARGMAVTISVKCEKISTLSCENKIISFKEMNPPDLIKDTKSDIIFFQYSVPGHDNKMQFESSSYEGYFLACEKERDLFKLILKKEDELGDRSIMFTVQNED,29.7%
9,SEQ ID NO 67 (ligand) YFTKLRSKLSVIRNLNDQVLFIDQGNRPLFEDMTDSDCRDNAPRTIFIISMYKLSHLRGIAVTISVKCEKISTLSCENKIISFKEMNPPDAIKDTKSDIIFFQSSVPGHDNKMQFESSSYEGYFLACEKERDLFKLILKKEDELGDRSIMFTVQNED,66.4%
10,SEQ ID NO 64 (ligand) YFPKLNSKLSVIRNLNDQVLFIDQGNRPLFEDMTDSDCRDNAPRTIFIISMYKVPTARGMAVTISVKCEKISTLSCENKIISFKEMNPPDAIKDTKSDIIFFQRSVPGHDNKMQFESSSYEGYFLACEKERDLFKLILKKEDELGDRSIMFTVQNED,70.8%
11,SEQ ID NO 63 (ligand) YFPKLQSKLSVIRNLNDQVLFIDQGNRPLFEDMTDSDCRDNAPRTIFIISMYKLSTPRGMAVTISVKCEKISTLSCENKIISFKEMNPPDAIKDTKSDIIFFQRSVPGHDNKMQFESSSYEGYFLACEKERDLFKLILKKEDELGDRSIMFTVQNED,72.6%

# More lines, now with the values ahead:
row,% of fluorescence positive cells,Binder
1,6.12%,SEQ ID NO 87 (ligand) YFPKLGSKLSVIRNLNDQVLFIDQGNRPLFEDMTDSDCRDNAPRTIFIISMYKGSHFRGMAVTISVKCEKISTLSCENKIISFKEMNPPDGIKDTKSDIIFFQSSVPGHDNKMQFESSSYEGYFLACEKERDLFKLILKKEDELGDRSIMFTVQNED
2,18.6%,SEQ ID NO 80 (ligand) YFPKLRSKLSVIRNLNDQVLFIDQGNRPLFEDMTDSDCRDNAPRTIFIISMYKWSYPRGMAVTISVKCEKISTLSCENKIISFKEMNPPDGIKDTKSDIIFFQFSVPGHDNKMQFESSSYEGYFLACEKERDLFKLILKKEDELGDRSIMFTVQNED
3,11.5%,SEQ ID NO 84 (ligand) YFPKLKSKLSVIRNLNDQVLFIDQGNRPLFEDMTDSDCRDNAPRTIFIISMYKMSSARGMAVTISVKCEKISTLSCENKIISFKEMNPPDGIKDTKSDIIFFQSSVPGHDNKMQFESSSYEGYFLACEKERDLFKLILKKEDELGDRSIMFTVQNED
4,13.5%,SEQ ID NO 83 (ligand) YFWKLWSKLSVIRNLNDQVLFIDQGNRPLFEDMTDSDCRDNAPRTIFIISMYKPSNFRGMAVTISVKCEKISTLSCENKIISFKEMNPPDVIKDTKSDIIFFQGSVPGHDNKMQFESSSYEGYFLACEKERDLFKLILKKEDELGDRSIMFTVQNED
5,5.27%,SEQ ID NO 89 (ligand) YFPKLASKLSVIRNLNDQVLFIDQGNRPLFEDMTDSDCRDNAPRTIFIISMYKHSSKRGMAVTISVKCEKISTLSCENKIISFKEMNPPDVIKDTKSDIIFFQVSVPGHDNKMQFESSSYEGYFLACEKERDLFKLILKKEDELGDRSIMFTVQNED
6,4.48%,SEQ ID NO 92 (ligand) YFWKLSSKLSVIRNLNDQVLFIDQGNRPLFEDMTDSDCRDNAPRTIFIISMYKQSLRRGMAVTISVKCEKISTLSCENKIISFKEMNPPDRIKDTKSDIIFFQASVPGHDNKMQFESSSYEGYFLACEKERDLFKLILKKEDELGDRSIMFTVQNED
7,27.8%,SEQ ID NO 78 (ligand) YFKKLPSKLSVIHNLNDQVLFIDQGNRPLFEDMTDSDCRDNAPRTIFIISMYKLSSERGMAVTISVKCEKISTLSCENKIISFKEMNPPDNIKDTKSDIIFFQRSVPGHDNKMQFESSSYEGYFLACEKERDLFKLILKKEDELGDRSIMFTVQNED
8,9.28%,SEQ ID NO 86 (ligand) YFPKLNSKLSVIRNLNDQVLFIDQGNRPLFEDMTDSDCRDNAPRTIFIISMYKLSTVRGMAVTISVKCEKISTLSCENKIISFKEMNPPDPIKDTKSDIIFFQHSVPGHDNKMQFESSSYEGYFLACEKERDLFKLILKKEDELGDRSIMFTVQNED
9,5.15%,SEQ ID NO 90 (ligand) YFPKLRSKLSVIRNLNDQVLFIDQGNRPLFEDMTDSDCRDNAPRTIFIISMYKSSLKRGMAVTISVKCEKISTLSCENKIISFKEMNPPDTIKDTKSDIIFFQSSVPGHDNKMQFESSSYEGYFLACEKERDLFKLILKKEDELGDRSIMFTVQNED
10,14.5%,SEQ ID NO 82 (ligand) YFPKLRSKLSVIRNLNDQVLFIDQGNRPLFEDMTDSDCRDNAPRTIFIISMYKLSTIRGMAVTISVKCEKISTLSCENKIISFKEMNPPDYIKDTKSDIIFFQRSVPGHDNKMQFESSSYEGYFLACEKERDLFKLILKKEDELGDRSIMFTVQNED
11,4.48%,SEQ ID NO 93 (ligand) YFGKLPSKLSVIRNLNDQVLFIDQGNRPLFEDMTDSDCRDNAPRTIFIISMYKLSNRRGMAVTISVKCEKISTLSCENKIISFKEMNPPDGIKDTKSDIIFFQRSVPGHDNKMQFESSSYEGYFLACEKERDLFKLILKKEDELGDRSIMFTVQNED
12,21.5%,SEQ ID NO 79 (ligand) YFPKLGSKLSVIRNLNDQVLFIDQGNRPLFEDMTDSDCRDNAPRTIFIISMYKWSQPRGMAVTISVKCEKISTLSCENKIISFKEMNPPDVIKDTKSDIIFFQYSVPGHDNKMQFESSSYEGYFLACEKERDLFKLILKKEDELGDRSIMFTVQNED
13,10.8%,SEQ ID NO 85 (ligand) YFPKLKSKLSVIRNLNDQVLFIDQGNRPLFEDMTDSDCRDNAPRTIFIISMYKWSGGRGMAVTISVKCEKISTLSCENKIISFKEMNPPDSIKDTKSDIIFFQFSVPGHDNKMQFESSSYEGYFLACEKERDLFKLILKKEDELGDRSIMFTVQNED
14,5.45%,SEQ ID NO 88 (ligand) YFPKLSSKLSVIRNLNDQVLFIDQGNRPLFEDMTDSDCRDNAPRTIFIISMYKHSSRRGMAVTISVKCEKISTLSCENKIISFKEMNPPDVIKDTKSDIIFFQASVPGHDNKMQFESSSYEGYFLACEKERDLFKLILKKEDELGDRSIMFTVQNED
